According to patent US20260250381A1:
Changes are numbered by the printed parent chain.

B1: 6E7 variant V34 (antibody, V domains shown)
VH: EVQLVQSGAEVKKPGESLKISCKGSGYSFTSYWIAWVRQMPGKGLEWMGIIYPGDSDTRYSPSFQGQVTISADKSISTAYLQWSSLKASDTAMYFCARQRTFYYDSSDYFDYWGQGTLVTVSS
VL: DIQMTQSPSSVSASVGDRVTITCRASQGISSWLAWYQQKPGKAPKLLIYAASSLQDGVPSRFSGSGSGTDFTLTISSLQPEDFATYFCQQADSFPRTFGQGTKLEIK
B2: 6E7 variant V55 (antibody, V domains shown)
VH: B1 VH with R59I, F64H
VL: B1 VL with D56N
B3: 6E7 variant V80 (antibody, V domains shown)
VH: B1 VH with T101N
VL: B1 VL with D56N
B4: 6E7 variant V45 (antibody, V domains shown)
VH: B1 VH
VL: B1 VL with W32F, D56N
B5: 6E7 variant V35 (antibody, V domains shown)
VH: B1 VH
VL: B1 VL with D56N, D92Y
B6: 6E7 variant V94 (antibody, V domains shown)
VH: B1 VH
VL: B1 VL with S52A, D56N
B7: 6E7 variant V43 (antibody, V domains shown)
VH: B1 VH with D57G
VL: B1 VL with D56N
B8: 6E7 variant V46 (antibody, V domains shown)
VH: B1 VH
VL: B1 VL with S53T, D56N
B9: 6E7 variant V59 (antibody, V domains shown)
VH: B1 VH
VL: B1 VL with D56N, Q89M
B10: 6E7 variant V90 (antibody, V domains shown)
VH: B1 VH with Y32E
VL: B1 VL with S31R, D56N
B11: 6E7 variant V6 (antibody, V domains shown)
VH: B1 VH with Y32M
VL: B1 VL with D56N
B12: 6E7 variant V91 (antibody, V domains shown)
VH: B1 VH with G54D
VL: B1 VL with D56N
B13: 6E7 variant V69 (antibody, V domains shown)
VH: B1 VH
VL: B1 VL with W32Y, D56N
B14: 6E7 variant V93 (antibody, V domains shown)
VH: B1 VH
VL: B1 VL with S31G, D56N
B15: 6E7 variant V7 (antibody, V domains shown)
VH: B1 VH with Y32E
VL: B1 VL with D56N
B16: 6E7 variant V8 (antibody, V domains shown)
VH: B1 VH with R59K
VL: B1 VL with D56N
B17: 6E7 variant V56 (antibody, V domains shown)
VH: B1 VH with S61Q
VL: B1 VL with D56N
B18: 6E7 variant V83 (antibody, V domains shown)
VH: B1 VH
VL: B1 VL with D56N, D92V
B19: 6E7 variant V68 (antibody, V domains shown)
VH: B1 VH with Y103R
VL: B1 VL with D56N
B20: 6E7 variant V79 (antibody, V domains shown)
VH: B1 VH with R59N
VL: B1 VL with D56N
B21: 6E7 variant V9 (antibody, V domains shown)
VH: B1 VH with T101G
VL: B1 VL with D56N
B22: 6E7 variant V71 (antibody, V domains shown)
VH: B1 VH
VL: B1 VL with D56N, F94E
B23: 6E7 variant V66 (antibody, V domains shown)
VH: B1 VH with Y27T
VL: B1 VL with D56N
B24: 6E7 variant V57 (antibody, V domains shown)
VH: B1 VH
VL: B1 VL with R24A, D56N
B25: 6E7 variant V92 (antibody, V domains shown)
VH: B1 VH with Y103H
VL: B1 VL with D56N
B26: 6E7 variant V44 (antibody, V domains shown)
VH: B1 VH with G54S
VL: B1 VL with D56N
B27: 6E7 variant V70 (antibody, V domains shown)
VH: B1 VH
VL: B1 VL with S52G, D56N
B28: 6E7 variant V54 (antibody, V domains shown)
VH: B1 VH with Y32Q
VL: B1 VL with D56N
B29: 6E7 variant V67 (antibody, V domains shown)
VH: B1 VH with I50M
VL: B1 VL with D56N
B30: 6E7 variant V47 (antibody, V domains shown)
VH: B1 VH
VL: B1 VL with D56N, R96M
B31: 6E7 variant V82 (antibody, V domains shown)
VH: B1 VH
VL: B1 VL with A51G, D56N
B32: 6E7 variant V10 (antibody, V domains shown)
VH: B1 VH
VL: B1 VL with A50S, D56N
B33: 6E7 variant V58 (antibody, V domains shown)
VH: B1 VH
VL: B1 VL with A50K, D56N
B34: 6E7 variant V42 (antibody, V domains shown)
VH: B1 VH with Y32A
VL: B1 VL with D56N
B35: 6E7 variant V81 (antibody, V domains shown)
VH: B1 VH
VL: B1 VL with W32L, D56N
B36: 6E7 variant V78 (antibody, V domains shown)
VH: B1 VH with S28R
VL: B1 VL with D56N

Target: T1, human TREM2 (human) (UniProt Q9NZC2)
T1 sequence (looked up): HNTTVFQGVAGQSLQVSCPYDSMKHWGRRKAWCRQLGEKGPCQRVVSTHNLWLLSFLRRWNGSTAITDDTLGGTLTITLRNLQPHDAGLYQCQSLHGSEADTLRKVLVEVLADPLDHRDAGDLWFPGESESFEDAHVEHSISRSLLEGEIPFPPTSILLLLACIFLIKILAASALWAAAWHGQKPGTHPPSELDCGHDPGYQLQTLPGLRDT
Assay: 1st screen, 110 nM Ab

| Binder | Binding Signal (fold over 6E7 parental antibody) [fold] |
| --- | --- |
| B1 | 0.34 |
| B2 | 0.24 |
| B3 | 0.59 |
| B4 | 0.43 |
| B5 | 0.21 |
| B6 | 0.31 |
| B7 | 0.2 |
| B8 | 0.83 |
| B9 | 0.19 |
| B10 | 0.33 |
| B11 | 0.2 |
| B12 | 0.25 |
| B13 | 0.41 |
| B14 | 0.35 |
| B15 | 0.11 |
| B16 | 0.28 |
| B17 | 0.23 |
| B18 | 0.2 |

| Binder | Binding Signal (fold over 6E7 parental antibody) [fold] |
| --- | --- |
| B19 | 0.44 |
| B20 | 0.7 |
| B21 | 0.67 |
| B22 | 0.37 |
| B23 | 0.25 |
| B24 | 0.84 |
| B25 | 0.22 |
| B26 | 0.65 |
| B27 | 0.79 |
| B28 | 0.55 |
| B29 | 0.8 |
| B30 | 0.42 |
| B31 | 0.3 |
| B32 | 0.76 |
| B33 | 0.28 |
| B34 | 0.45 |
| B35 | 0.17 |
| B36 | 0.86 |

Target: T1, human TREM2 (human)
Assay: 2nd screen, 100 nM Ab

| Binder | Binding Signal (fold over 6E7 parental antibody) [fold] |
| --- | --- |
| B1 | 1.02 |
| B2 | 0.66 |
| B3 | 0.5 |
| B4 | 0.53 |
| B5 | 0.29 |
| B6 | 0.87 |
| B7 | 0.33 |
| B8 | 0.96 |
| B9 | 0.6 |
| B10 | 0.36 |
| B11 | 0.56 |
| B12 | 0.61 |
| B13 | 0.4 |
| B14 | 1.05 |
| B15 | 0.32 |
| B16 | 0.77 |
| B17 | 0.59 |
| B18 | 0.29 |

| Binder | Binding Signal (fold over 6E7 parental antibody) [fold] |
| --- | --- |
| B19 | 0.43 |
| B20 | 0.52 |
| B21 | 0.54 |
| B22 | 0.48 |
| B23 | 0.74 |
| B24 | 0.85 |
| B25 | 0.65 |
| B26 | 0.52 |
| B27 | 0.84 |
| B28 | 0.54 |
| B29 | 0.84 |
| B30 | 0.47 |
| B31 | 0.79 |
| B32 | 0.7 |
| B33 | 0.68 |
| B34 | 0.41 |
| B35 | 0.23 |
| B36 | 1.11 |
